Molecular target: the molecule itself
Test: SEC

B1: recombinant N-terminal cleavable His-tagged E. coli enolase (enzyme)
chain: MSKIVKIIGREIIDSRGNPTVEAEVHLEGGFVGMAAAPSGASTGSREALELRDGDKSRFLGKGVTKAVAAVNGPIAQALIGKDAKDQAGIDKIMIDLDGTENKSKFGANAILAVSLANAKAAAAAKGMPLYEHIAELNGTPGKYSMPVPMMNIINGGEHADNNVDIQEFMIQPVGAKTVKEAIRMGSEVFHHLAKVLKAKGMNTAVGDEGGYAPNLGSNAEALAVIAEAVKAAGYELGKDITLAMDCAASEFYKDGKYVLAGEGNKAFTSEEFTHFLEELTKQYPIVSIEDGLDESDWDGFAYQTKVLGDKIQLVGDDLFVTNTKILKEGIEKGIANSILIKFNQIGSLTETLAAIKMAKDAGYTAVISHRSGETEDATIADLAVGTAAGQIKTGSMSRSDRVAKYNQLIRIEEALGEKAPYNGRKEIKGQA
With B1 the “stoichiometry N” value was 2.
